Reference: patent US20100255010A1 (Genentech, published 2010)
Substitutions are numbered along the chain they refer to. Blank lines part the entries; values can stand above or below the binder they belong to.

How the values were obtained:
HER3-ECD-Fc = target: T1, HER3-ECD-Fc (human, UniProt P21860 20-643, limits assumed); assay: radioligand blocking assay: antibody pre-bound to captured HER3-ECD-Fc, then 125I-HRG added; bound counts as % of control
T1 construct: extracellular domain; also called HER3-FC; HER3-IgG

[1] = target: HER3 (form of the protein in the assay not stated) (UniProt P21860 20-643, limits assumed); assay: SPR BIAcore

- IC50 (read off the curve) (HER3-ECD-Fc): ~3 nM
B1: D1.5-115, mIgG2A (antibody, V domains shown)
VH: EVQLVESGGGLVQPGGSLRLSCAASGFTFTGNWIHWVRQAPGKGLEWVGEISPSGGYTDYADSVKGRFTISADTSKNTAYLQMNSLRAEDTAVYYCARESRVSYEAAMDYWGQGTLVTVSS
VL: DIQMTQSPSSLSASVGDRVTITCRASQEIFPDVAWYQQKPGKAPKLLIYSASSLYSGVPSRFSGSGSGTDFTLTISSLQPEDFATYYCQQAAPTPYTFGQGTKVEIKR

- IC50 (read off the curve) (HER3-ECD-Fc): ~3 nM
B2: D1.5-113, mIgG2A (antibody, V domains shown)
VH: B1 VH
VL: DIQMTQSPSSLSASVGDRVTITCRASQSLLASHDGTPWVAWYQQKPGKAPKLLIYDASYLYSGVPSRFSGSGSGTDFTLTISSLQPEDFATYYCQQSTFAPYTFGQGTKVEIKR

- IC50 (read off the curve) (HER3-ECD-Fc): ~5 nM
B3: D1.5-121, mIgG2A (antibody, V domains shown)
VH: B1 VH
VL: B1 VL with E28D, I29V, F30G, P31S, V33L, S53Y, A91S, A92D, T94E

- IC50 (read off the curve) (HER3-ECD-Fc): ~4 nM
B4: D1.5-116, mIgG2A (antibody, V domains shown)
VH: B1 VH
VL: B1 VL with E28A, F30A, P31S, S53F, A91S, A92E, T94E

- binding result [1]: binds
B5: DL11b (bispecific antibody, V domains shown)
VH: B1 VH with F29L, T30S, N32D, V48L, P53A, S54A, Y104F
VL: B1 VL with E28N, F30A, P31T, S53F, A91S, A92E, T94E
